Results as given in patent US20240228658A1 (IMMUNORIZON, published 2024).
Like-named read-outs stand apart in the source and are kept apart here.

Tests used:
[1] = molecular target: T1, recombinant human 5T4 ECD protein fused to human Fc (human, UniProt Q13641 32-355); assay: Octet, mAb on AMC sensor, 5T4-ECD Fc as analyte
T1 construct: extracellular domain; Immunogen, ELISA antigen and Octet analyte; also called 5T4-ECD-hFc; 5T4-ECD-Fc; not shown: human Fc
T1 sequence (looked up): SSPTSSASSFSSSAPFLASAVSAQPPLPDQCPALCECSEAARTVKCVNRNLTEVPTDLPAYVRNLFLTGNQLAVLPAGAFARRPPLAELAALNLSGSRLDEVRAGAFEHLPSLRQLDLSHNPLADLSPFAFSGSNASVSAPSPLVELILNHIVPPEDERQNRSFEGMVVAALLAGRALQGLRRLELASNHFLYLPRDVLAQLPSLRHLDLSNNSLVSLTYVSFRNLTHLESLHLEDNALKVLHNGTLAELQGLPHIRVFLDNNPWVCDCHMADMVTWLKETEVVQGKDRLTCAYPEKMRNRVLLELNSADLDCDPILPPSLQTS
Procedure: (§1) Binding Affinities by Octet Test. Briefly, mAb were analyzed by Octet RED 384 instrument, where human 5T4-ECD Fc antigen at 200 nM and 100 nM served as the analyte and the purified mAbs at 5 μg/ml served as the ligand, bound to AMC sensor (anti mouse Fc antibody) with immobilized phase of 180 s, association phase of 300 s, dissociation phase of 180 s.
(§2) FIGS. 7A-7G present the Octet data determined the KD affinities of selected mAb.

cyno 5T4 on CHO cells [2] = molecular target: T2, cyno 5T4 on CHO cells (cyno, UniProt Q4R8Y9 35-420); assay: FACS, CHO cells over expressing cyno 5T4
T2 construct: whole, on cells; also called CHO over expressing cyno 5T4
T2 sequence (looked up): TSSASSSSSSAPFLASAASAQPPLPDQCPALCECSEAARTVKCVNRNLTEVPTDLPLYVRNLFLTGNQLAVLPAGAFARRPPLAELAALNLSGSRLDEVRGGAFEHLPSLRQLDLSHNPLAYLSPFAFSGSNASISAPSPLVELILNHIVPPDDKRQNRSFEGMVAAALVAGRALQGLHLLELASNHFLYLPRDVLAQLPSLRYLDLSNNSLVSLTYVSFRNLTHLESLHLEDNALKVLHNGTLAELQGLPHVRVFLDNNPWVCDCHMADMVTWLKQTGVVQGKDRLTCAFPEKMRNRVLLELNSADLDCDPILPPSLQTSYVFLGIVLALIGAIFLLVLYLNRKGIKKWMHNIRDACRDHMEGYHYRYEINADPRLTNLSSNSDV

[3] = molecular target: T1, recombinant human 5T4 ECD protein fused …; assay: Octet, mAb on AMC sensor, 5T4-Fc as analyte
Procedure: as §1, §2

[4] = molecular target: T1, recombinant human 5T4 ECD protein fused …; assay: ELISA, coated 5T4 antigen
cyno 5T4 on CHO cells [5] = molecular target: T2, cyno 5T4 on CHO cells; assay: FACS, CHO cells over expressing cyno 5T4; remark: listed apart in the source
human 5T4 on cells [6] = molecular target: T3, human 5T4 on cells (human, UniProt Q13641 32-420); assay: FACS, CHO cells over expressing human 5T4
T3 construct: whole, on cells; also called CHO cells over expressing human 5T4; MCF-7 (endogenous 5T4)
T3 sequence (looked up): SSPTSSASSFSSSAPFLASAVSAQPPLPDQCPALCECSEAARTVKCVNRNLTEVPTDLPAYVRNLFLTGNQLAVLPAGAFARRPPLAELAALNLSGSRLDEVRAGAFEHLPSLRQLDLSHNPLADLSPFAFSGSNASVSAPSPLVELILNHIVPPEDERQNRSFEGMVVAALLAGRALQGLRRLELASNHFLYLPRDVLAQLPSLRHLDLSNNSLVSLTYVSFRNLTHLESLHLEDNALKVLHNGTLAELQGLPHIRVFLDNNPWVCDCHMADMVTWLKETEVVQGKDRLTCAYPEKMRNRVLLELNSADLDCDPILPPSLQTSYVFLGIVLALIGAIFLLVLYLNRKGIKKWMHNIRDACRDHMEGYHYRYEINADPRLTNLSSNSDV

[7] = molecular target: T4, h5T4-His (cat #19845-H08H, Sino Biological) (human, UniProt Q13641 32-355); assay: ELISA on recombinant 5T4 protein; ELISA on recombinant 5T4 protein
T4 construct: also called recombinant 5T4 protein; 5T4 recombinant antigen protein; not shown: His tag
T4 sequence (looked up): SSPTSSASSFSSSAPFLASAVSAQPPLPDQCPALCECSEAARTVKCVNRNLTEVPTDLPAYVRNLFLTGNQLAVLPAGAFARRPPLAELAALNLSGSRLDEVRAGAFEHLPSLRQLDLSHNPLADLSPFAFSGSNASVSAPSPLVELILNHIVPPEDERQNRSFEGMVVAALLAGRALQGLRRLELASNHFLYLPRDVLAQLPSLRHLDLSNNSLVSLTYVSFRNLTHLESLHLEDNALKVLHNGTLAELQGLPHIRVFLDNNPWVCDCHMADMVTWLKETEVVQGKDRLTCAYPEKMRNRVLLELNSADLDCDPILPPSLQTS

human 5T4 on cells [8] = molecular target: T3, human 5T4 on cells; assay: FACS on CHO over expressing human 5T4; FACS, CHO over expressing human 5T4
human 5T4 on cells [9] = molecular target: T3, human 5T4 on cells; assay: FACS on MCF-7 cells endogenously expressing 5T4; FACS, MCF-7 endogenously expressing 5T4
cyno 5T4 on CHO cells [10] = molecular target: T2, cyno 5T4 on CHO cells; assay: FACS on CHO over expressing cyno 5T4 (data not shown); FACS, CHO over expressing cyno 5T4
[11] = molecular target: T1, recombinant human 5T4 ECD protein fused …; assay: ELISA, coated 5T4 antigen; remark: listed apart in the source
cyno 5T4 on CHO cells [12] = molecular target: T2, cyno 5T4 on CHO cells; assay: FACS, CHO cells over expressing cyno 5T4; remark: listed apart in the source
[13] = molecular target: T1, recombinant human 5T4 ECD protein fused …; assay: ELISA, coated 5T4 antigen; remark: listed apart in the source
human 5T4 on cells [14] = molecular target: T3, human 5T4 on cells; assay: FACS, CHO cells over expressing human 5T4; remark: listed apart in the source
[15] = molecular target: T1, recombinant human 5T4 ECD protein fused …; assay: ELISA, coated 5T4 antigen; remark: listed apart in the source
[16] = molecular target: T1, recombinant human 5T4 ECD protein fused …; assay: Octet (data not shown; antigen format not stated here)

B1: mAb006 (antibody, V domains shown)
VH: EVQLVESGGGLVKPGGSLKLSCAASGFTFSNYVMSWVRQTPEKRLEWVATISDRGSYTYYPDYVKGRFTISRDNAKNNLYLQMSHLKSEDTAMYYCARASYYSNLGFAYWGQGTLVTVSA
VL: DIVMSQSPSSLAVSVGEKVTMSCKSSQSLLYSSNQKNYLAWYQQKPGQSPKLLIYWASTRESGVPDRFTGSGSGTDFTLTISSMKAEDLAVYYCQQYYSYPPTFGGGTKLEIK
notes: also called IM, 5T4 mouse hybridoma cl-6
[1]
  Kd: 5.67 nM
Cyno 5T4 on CHO cells [2]
  binding result: binds
[3]
  koff: 0.00125 s⁻¹
  kon: 220000 M⁻¹ s⁻¹

B2: mAb005 (antibody, V domains shown)
VH: EVQLVESGGGLVQPKGSLQLSCAASGFTFNTYAMHWVRQAPGKGLEWVARIRSKSSNYATYYADSVKDRFTISRDDSQSMLYLQMNNLKTEDTAMYYCVRDGDYYYGSRPSYWYFDVWGTGTTVTVSS
VL: DILLTQSPAILSVSPGERVSFSCRASQSIGTNIHWYQQRTNGSPRLLIKYASESISGIPSRFSGSGSGTDFTLSINNVESEDIADYYCQQTNTWPLTFGAGTKLDLK
notes: also called IM, 5T4 mouse hybridoma cl-5
[1]
  Kd: 2.69 nM
[3]
  koff: 0.00024 s⁻¹
  kon: 89300 M⁻¹ s⁻¹

B3: mAb008 (antibody, V domains shown)
VH: QVQLQQSGAELMKPGASVKLACKATGYTFTAYWIEWVKQRPGHGLEWIGEILPGRGSTNSNEKFKGKATFTADTSSNTVYMQLSSLTTEDSAIFYCARGYRDFDYWGQGTTLTVSS
VL: DIVMTQSQKFMSTTVGDRVSIICKASQNVGTAVAWYQQKPGQSPKVLIYSASNRYTGVPDRFTGSGSGTDFTLTISNMQSEDLADYFCQQYTSYPRTFGGGTKLEIK
notes: also called IM, 5T4 mouse hybridoma cl-8
[4]
  EC50 (read off the curve): ~0.3 nM
[1]
  Kd: 0.209 nM
Cyno 5T4 on CHO cells [5]
  EC50 (read off the curve): ~5 nM
Human 5T4 on cells [6]
  EC50 (read off the curve): ~5 nM
[3]
  koff: 3.87e-05 s⁻¹
  kon: 185000 M⁻¹ s⁻¹

B4: mAb008-hIgG1 chimeric Ab (antibody, V domains shown)
VH: QVQLQQSGAELMKPGASVKLACKATGYTFTAYWIEWVKQRPGHGLEWIGEILPGRGSTNSNEKFKGKATFTADTSSNTVYMQLSSLTTEDSAIFYCARGYRDFDYWGQGTTLTVSS
VL: DIVMTQSQKFMSTTVGDRVSIICKASQNVGTAVAWYQQKPGQSPKVLIYSASNRYTGVPDRFTGSGSGTDFTLTISNMQSEDLADYFCQQYTSYPRTFGGGTKLEIK
notes: Mouse VH and VL of mAb008 cloned into human IgG1
[7]
  EC50: 0.4 nM
Human 5T4 on cells [8]
  EC50: 5 nM
Human 5T4 on cells [9]
  EC50: 4.4 nM
Cyno 5T4 on CHO cells [10]
  EC50: 5.7 nM

B5: mAb014 (antibody, V domains shown)
VH: QVQLQQSGGELMKPGASVKLSCKATGYKFTGYWIEWVKQRPGHGLEWIGEILPGRGSTNYNEKFKGKATFTADTSSNTVYMQLSSLTTEDSAIYYCARGGRDFDFWGQGSTLTVSS
VL: DIQMTQTTSSLSASLGDRVTISCSASQGINSNLNWYQQKPDGTVKLLIYYTSSLHSGVPSRFSGSGSGTDYSLTISNLEPEDIATYYCQQYNKLPYTFGGGTKLEIK
notes: also called IM, 5T4 mouse hybridoma cl-14
[11]
  EC50 (read off the curve): ~0.2 nM
Cyno 5T4 on CHO cells [12]
  binding result: binds

B6: mAb010 (antibody, V domains shown)
VH: QVQLRQSGAELMKPGASVKLSCKATGYTFTGYWIEWVKQRPGHGLEWIGEILPGRGSSNYNEKFKGKATLTADTSSNTVYMQLSSLTIEDSAIYYCARGGRDFDYWGQGTTLTVSS
VL: DIQMTQITSSLSASLGDRVTIGCSASQGINNNLNWYQQKPDGTVKLLVYYTSSLHSGVPSRFSGSGSGTDYSLTISNLEPEDIATYYCQQFIKLPYTFGGGTKLEIK
notes: also called mAb10; IM, 5T4 mouse hybridoma cl-10
[4]
  EC50 (read off the curve): ~0.3 nM
[1]
  Kd: 0.463 nM
Cyno 5T4 on CHO cells [5]
  EC50 (read off the curve): ~4 nM
Human 5T4 on cells [6]
  EC50 (read off the curve): ~3 nM
[3]
  koff: 9.53e-05 s⁻¹
  kon: 206000 M⁻¹ s⁻¹

B7: mAb003 (antibody, V domains shown)
VH: QVQLQQSGAELMKPGASVKLSCKATGYTFTGYWIEWVKQRPGHGLEWIGEILPGRDSTNSNEKFKGKATFTADTSSNTVYMQLSSLTTEDSAIFYCARGYRDFDYWGQGTTLTVSS
VL: DIVMTQSQKFMSTTVGDRVSIICKASQNVGTAVAWYQQKPGQSPKVLIYSASNRYTGVPDRFTGSGSGTDFTLTISNMQSEDLADYFCQQYSSYPRTFGGGTKLEIK
notes: also called IM, 5T4 mouse hybridoma cl-3
[13]
  EC50 (read off the curve): ~0.4 nM
Cyno 5T4 on CHO cells [2]
  EC50 (read off the curve): ~5 nM
Human 5T4 on cells [14]
  EC50 (read off the curve): ~4 nM

B8: mAb016 (antibody, V domains shown)
VH: AVQLQQSGPVRVKPGASVKMSCKASGYPFTDYYMNWVKQSHGRSLDWIGVFNPYNGDTRYTQKFKDKATLTIDKSSSTAYMELNSLTSEDSAVYYCARLRLLYDTSEYYVMDYWGQGTSVTVSS
VL: ENVLTQSPAIMSASPGEKVTMTCSASSSVNYMHWYQQKSNTSPKLWIYDTSKLASGVPGRFSGSGSGNSYSLTISSMEAEDVATYFCFQGSGYPYTFGGGTKLEIK
notes: also called mAb0016; IM, 5T4 mouse hybridoma cl-16
[15]
  EC50 (read off the curve): ~0.2 nM
[1]
  Kd: 0.232 nM
[3]
  koff: 3.48e-05 s⁻¹
  kon: 150000 M⁻¹ s⁻¹

B9: mAb016-hIgG1 chimeric Ab (antibody, V domains shown)
VH: AVQLQQSGPVRVKPGASVKMSCKASGYPFTDYYMNWVKQSHGRSLDWIGVFNPYNGDTRYTQKFKDKATLTIDKSSSTAYMELNSLTSEDSAVYYCARLRLLYDTSEYYVMDYWGQGTSVTVSS
VL: ENVLTQSPAIMSASPGEKVTMTCSASSSVNYMHWYQQKSNTSPKLWIYDTSKLASGVPGRFSGSGSGNSYSLTISSMEAEDVATYFCFQGSGYPYTFGGGTKLEIK
notes: Mouse VH and VL of mAb016 cloned into human IgG1; also called mAb0016-IgG1
[16]
  Kd: 14.7 nM
[7]
  EC50: 0.3 nM
Human 5T4 on cells [8]
  EC50: 1.1 nM
Human 5T4 on cells [9]
  EC50: 0.9 nM
Cyno 5T4 on CHO cells [10]
  EC50: 2.2 nM

B10: mAb018 (antibody, V domains shown)
VH: EVQLRQSGPVLVKPGASLKMSCKASGFTIADYYMTWVTQSHGQSLDWIGLINPYSGETTYNQKFKGKATLSVDKSSNTAYMDLNSLTSEDSAVYYCARWRLGYYAMDYWGRGTSVTVSS
VL: ENVLTQSPAIMSASPGEKVTMTCSASSSVSYMHWYQQKSSTSPKVWIYDTSKLASGVPGRFSGSGSGNSYSLTISSMEAEDVATYYCFQGIGYPYTFGGGTKLEIK
notes: also called IM, 5T4 mouse hybridoma cl-18
[15]
  EC50 (read off the curve): ~0.3 nM
[1]
  Kd: 0.269 nM
Cyno 5T4 on CHO cells [12]
  binding result: binds
[3]
  koff: 6.97e-05 s⁻¹
  kon: 259000 M⁻¹ s⁻¹
